Source: patent US20040127407A1 (GREENVILLE HOSPITAL SYSTEM, published 2004)

T1: prolactin receptor (PRLR) on T-47D human breast cancer cells (human, UniProt P16471 25-622)
T1 construct: whole, on cells; Endogenous receptor on T-47D cells; also called hPRLR; PRL receptor
T1 sequence (looked up): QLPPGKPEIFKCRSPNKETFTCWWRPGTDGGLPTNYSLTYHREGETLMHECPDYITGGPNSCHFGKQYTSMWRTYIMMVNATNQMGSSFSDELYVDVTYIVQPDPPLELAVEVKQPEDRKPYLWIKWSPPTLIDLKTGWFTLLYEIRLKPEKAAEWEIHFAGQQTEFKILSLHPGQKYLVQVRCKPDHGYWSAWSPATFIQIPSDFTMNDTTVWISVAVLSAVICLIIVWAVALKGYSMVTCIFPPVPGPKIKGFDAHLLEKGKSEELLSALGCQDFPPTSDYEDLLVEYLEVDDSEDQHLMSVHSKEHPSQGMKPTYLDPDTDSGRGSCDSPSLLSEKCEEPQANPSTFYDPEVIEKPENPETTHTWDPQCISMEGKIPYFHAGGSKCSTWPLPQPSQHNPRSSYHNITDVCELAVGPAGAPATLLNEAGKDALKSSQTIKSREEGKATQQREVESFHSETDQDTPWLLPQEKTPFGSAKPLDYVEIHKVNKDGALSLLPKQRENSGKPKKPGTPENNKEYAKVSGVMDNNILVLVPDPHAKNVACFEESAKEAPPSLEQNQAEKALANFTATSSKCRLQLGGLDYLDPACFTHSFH

B1: human prolactin (hPRL) (ligand, UniProt P01236 29-227, looked up)
chain: LPICPGGAARCQVTLRDLFDRAVVLSHYIHNLSSEMFSEFDKRYTHGRGFITKAINSCHTSSLATPEDKEQAQQMNQKDFLSLIVSILRSWNEPLYHLVTEVRGMQEAPEAILSKAVEIEEQTKRLLEGMELIVSQVHPETKENEIYPVWSGLPSLQMADEESRLSAYYNLLHCLRRDSHKIDNYLKLLKCRIIHNNNC
B2: hPRL-G129R (ligand)
chain: MLPICPGGAARCQVTLRDLFDRAVVLSHYIHNLSSEMFSEFDKRYTHGRGFITKAINSCHTSSLATPEDKEQAQQMNQKDFLSLIVSILRSWNEPLYHLVTEVRGMQEAPEAILSKAVEIEEQTKRLLERMELIVSQVHPETKENEIYPVWSGLPSLQMADEESRLSAYYNLLHCLRRDSHKIDNYLKLLKCRIIHNNNC
notes: also called hPRLA; prolactin antagonist
B3: G129R-endostatin fusion protein (GEFP) (other)
chain: MLPICPGGAARCQVTLRDLFDRAVVLSHYIHNLSSEMFSEFDKRYTHGRGFITKAINSCHTSSLATPEDKEQAQQMNQKDFLSLIVSILRSWNEPLYHLVTEVRGMQEAPEAILSKAVEIEEQTKRLLERMELIVSQVHPETKENEIYPVWSGLPSLQMADEESRLSAYYNLLHCLRRDSHKIDNYLKLLKCRIIHNNNCGSHSHRDFQPVLHLVALNSPLSGGMRGIRGADFQCFQQARAVGLAGTFRAFLSSRLQDLYSIVRRADRAAVPIVNLKDELLFPSWEALFSGSEGPLKPGARIFSFDGKDVLRHPTWPQKSVWHGSDPNGRRLTESYCETWRTEAPSATGQASSLLGGRLLGQSAASCHHAYIVLCIENSFMTASK
notes: The C-terminus of G129R is fused to the N-terminus of endostatin; E. coli product with an extra Met at the N-terminus; also called hPRL-G129R-Endo fusion protein

Molecular target: T1, prolactin receptor (PRLR) on T-47D …
Assay: competitive radioreceptor binding assay on T-47D cells, 125I-hPRL tracer
Experimental: Radioreceptor binding assays were performed as previously described (Chen et al., 1991; Appendix B). Briefly, T-47D cells will be grown in six-well tissue culture plates until 90% confluent (˜10⁵ cells/well). Monolayers of cells were starved in serum-free RPMI-1640 medium for 2h. The cells were then incubated at room temperature for two hours in serum-free RPMI-1640 containing 8×10⁴ cpm ¹²⁵I hPRL (Specific Activity=30 μCi/μg; NEN Dupont, Boston, Mass.) with or without hPRL, hPRL-G129R, endostatin, or GEFP at various concentrations. Cells were then washed three times in serum-free RPMI-1640 and solubilized in 0.5 ml of 0.1N NaOH/1% SDS, and the bound radioactivity was determined by a Gamma counter (ICN Biomedical, model 4/600plus; Costa Mesa, Calif.).

Binding result, binds:
B1, B2, B3
